T1: full-length human Claudin 18.2 on MIA PaCa-2 cells (MIA PaCa-2+ Claudin 18.2) (human, UniProt P56856-2 1-261)
T1 sequence (looked up): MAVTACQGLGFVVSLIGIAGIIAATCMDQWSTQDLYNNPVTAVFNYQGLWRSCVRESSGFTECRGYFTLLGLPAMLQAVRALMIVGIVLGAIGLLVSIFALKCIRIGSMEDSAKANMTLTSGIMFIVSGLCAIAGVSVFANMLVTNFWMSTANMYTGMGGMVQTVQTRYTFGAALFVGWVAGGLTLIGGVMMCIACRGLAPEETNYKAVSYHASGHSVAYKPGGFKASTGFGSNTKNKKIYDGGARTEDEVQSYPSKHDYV

T2: Claudin 18.2 on CHO cells (CHO+ Claudin 18.2) (UniProt P56856-2 1-261)
T2 construct: whole, on cells; also called CHO_18.2
T2 sequence (looked up): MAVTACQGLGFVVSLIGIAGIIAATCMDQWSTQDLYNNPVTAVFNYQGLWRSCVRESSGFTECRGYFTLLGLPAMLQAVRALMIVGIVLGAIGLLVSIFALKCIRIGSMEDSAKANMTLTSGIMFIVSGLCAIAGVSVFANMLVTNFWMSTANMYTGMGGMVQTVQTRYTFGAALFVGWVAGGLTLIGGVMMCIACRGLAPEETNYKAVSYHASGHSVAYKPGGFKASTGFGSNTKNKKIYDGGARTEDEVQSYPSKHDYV


How the values were obtained:
[1] = biological target: T1, full-length human Claudin 18.2 on MIA …; assay: cell-based or functional assay
CD3 on Jurkat cells = biological target: T3, CD3 on Jurkat cells; assay: flow cytometry on Jurkat cells, CD3 binding (T cell) (summary table)
T3 construct: whole, on cells; also called CD3+ Jurkat cells

[2] = biological target: T2, Claudin 18.2 on CHO cells (CHO+ Claudin …); assay: flow cytometry, unpurified supernatant on CHO+ Claudin 18.2 cells, FITC-positive cells
Protocol: To compare the half maximal effective concentration (EC50) of the lead BsAbs, 8.5×10⁴ cells/well of CHO+ Claudin 18.2 cells in 100 μl FACS buffer were seeded in a V-bottom 96-well plate. […] The final concentrations of the BsAbs were 10 μg/ml, 1 μg/ml, 100 ng/ml, 10 ng/ml, 1 ng/ml, 100 pg/ml, 10 pg/ml, and 1 pg/ml. After incubating the plate at RT for 45 minutes, the cells were washed twice with the FACS buffer and cell pellets were resuspended in 100 μl FACS buffer containing goat anti-human-FITC (1:200) for 30 minutes at RT in dark. Afterwards, the cells were washed twice with FACS buffer, and cell pellets were resuspended in 120 μl FACS buffer. The percentage of FITC-positive cells were analyzed by flow cytometry.

T3 sequence (P07766 23-207, chain 1 of 3): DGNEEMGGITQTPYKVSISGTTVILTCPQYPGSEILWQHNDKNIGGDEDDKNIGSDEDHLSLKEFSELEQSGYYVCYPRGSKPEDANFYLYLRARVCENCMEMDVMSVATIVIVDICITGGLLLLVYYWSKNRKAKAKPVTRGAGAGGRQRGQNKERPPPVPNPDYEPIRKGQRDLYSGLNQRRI
T3 sequence (P09693 23-182, chain 2 of 3, further chain): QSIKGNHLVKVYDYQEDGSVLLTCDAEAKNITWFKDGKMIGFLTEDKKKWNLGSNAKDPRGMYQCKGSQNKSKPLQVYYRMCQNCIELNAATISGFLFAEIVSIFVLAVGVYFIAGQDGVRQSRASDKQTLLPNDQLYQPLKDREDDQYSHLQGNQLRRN
T3 sequence (P04234 22-171, chain 3 of 3, further chain): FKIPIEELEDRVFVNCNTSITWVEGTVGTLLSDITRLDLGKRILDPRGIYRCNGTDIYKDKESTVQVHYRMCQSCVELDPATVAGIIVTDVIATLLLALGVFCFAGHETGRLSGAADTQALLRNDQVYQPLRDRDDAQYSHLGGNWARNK

Binder | T cell activation EC50 (CD69-positive cells) [1] | EC50 (CD3 on Jurkat cells) | EC50 [2]
Claudin 18.2-1B2/CD3 BsAb (BiSpecific-V1 structure) (bispecific antibody) VHH-Fc: not shown heavy: not shown light: QIVLSQSPAILSASPGEKVTMTCRASSSVSYIHWFQQKPGSSPKPWIYATSNLASGVPVRFSGSGSGTSYSLTISRVEAEDAATYYCQQWTSNPPTFGGGTKLEIKRTVAAPSVFIFPPSDEQLKSGTASVVCLLNNFYPREAKVQWKVDNALQSGNSQESVTEQDSKDSTYSLSSTLTLSKADYEKHKVYACEVTHQGLSSPVTKSFNRGEC | 0.056 µg/mL | 58.9 µg/mL | –
Claudin 18.2-4G1/CD3 BsAb (BiSpecific-V1 structure) (bispecific antibody, tested as unpurified culture supernatant) VHH-Fc: not shown heavy: not shown light: QIVLSQSPAILSASPGEKVTMTCRASSSVSYIHWFQQKPGSSPKPWIYATSNLASGVPVRFSGSGSGTSYSLTISRVEAEDAATYYCQQWTSNPPTFGGGTKLEIKRTVAAPSVFIFPPSDEQLKSGTASVVCLLNNFYPREAKVQWKVDNALQSGNSQESVTEQDSKDSTYSLSSTLTLSKADYEKHKVYACEVTHQGLSSPVTKSFNRGEC | – | – | ~0.006 µg/mL
Claudin 18.2-3C2/CD3 BsAb (BiSpecific-V1 structure) (bispecific antibody, tested as unpurified culture supernatant) VHH-Fc: not shown heavy: not shown light: QIVLSQSPAILSASPGEKVTMTCRASSSVSYIHWFQQKPGSSPKPWIYATSNLASGVPVRFSGSGSGTSYSLTISRVEAEDAATYYCQQWTSNPPTFGGGTKLEIKRTVAAPSVFIFPPSDEQLKSGTASVVCLLNNFYPREAKVQWKVDNALQSGNSQESVTEQDSKDSTYSLSSTLTLSKADYEKHKVYACEVTHQGLSSPVTKSFNRGEC | – | – | ~0.013 µg/mL

Source: patent US20240109963A1 (AB THERAPEUTICS, published 2024)
